Test results published in patent publication US11965039B2, “Compstatin analogues and their medical uses” (priority 2018, dated 2024).
Positions of bridges follow the written chain, without caps; N, C: chain ends. Non-standard residues stand in square brackets, D forms with d. Trp(1-Me) = Cn1cc(C[C@H](N)C(=O)O)c2ccccc21; NMeI = CC[C@H](C)[C@H](NC)C(=O)O; β3hI = CC[C@H](C)[C@H](N)CC(=O)O; Nle = CCCC[C@H](N)C(=O)O; Nva = CCC[C@H](N)C(=O)O; Sar = CNCC(=O)O

B1: Compound 2 (peptide)
peptide: Ac-ICIWQDWGEHRCT-NH2
modifications: disulfide 2-12
SMILES: CC[C@H](C)[C@H](NC(C)=O)C(=O)N[C@H]1CSSC[C@@H](C(=O)N[C@H](C(N)=O)[C@@H](C)O)NC(=O)[C@H](CCCNC(=N)N)NC(=O)[C@H](Cc2c[nH]cn2)NC(=O)[C@H](CCC(=O)O)NC(=O)CNC(=O)[C@H](Cc2c[nH]c3ccccc23)NC(=O)[C@H](CC(=O)O)NC(=O)[C@H](CCC(N)=O)NC(=O)[C@H](Cc2c[nH]c3ccccc23)NC(=O)[C@H]([C@@H](C)CC)NC1=O
B2: Compound 21 (peptide)
peptide: Ac-ICIWQDWGEHRCS-NH2
modifications: disulfide 2-12
SMILES: CC[C@H](C)[C@H](NC(C)=O)C(=O)N[C@H]1CSSC[C@@H](C(=O)N[C@@H](CO)C(N)=O)NC(=O)[C@H](CCCNC(=N)N)NC(=O)[C@H](Cc2c[nH]cn2)NC(=O)[C@H](CCC(=O)O)NC(=O)CNC(=O)[C@H](Cc2c[nH]c3ccccc23)NC(=O)[C@H](CC(=O)O)NC(=O)[C@H](CCC(N)=O)NC(=O)[C@H](Cc2c[nH]c3ccccc23)NC(=O)[C@H]([C@@H](C)CC)NC1=O
B3: Compound 15 (peptide)
peptide: Ac-ICIWQDWGEHRCTGAES-NH2
modifications: disulfide 2-12
SMILES: CC[C@H](C)[C@H](NC(C)=O)C(=O)N[C@H]1CSSC[C@@H](C(=O)N[C@H](C(=O)NCC(=O)N[C@@H](C)C(=O)N[C@@H](CCC(=O)O)C(=O)N[C@@H](CO)C(N)=O)[C@@H](C)O)NC(=O)[C@H](CCCNC(=N)N)NC(=O)[C@H](Cc2c[nH]cn2)NC(=O)[C@H](CCC(=O)O)NC(=O)CNC(=O)[C@H](Cc2c[nH]c3ccccc23)NC(=O)[C@H](CC(=O)O)NC(=O)[C@H](CCC(N)=O)NC(=O)[C@H](Cc2c[nH]c3ccccc23)NC(=O)[C@H]([C@@H](C)CC)NC1=O
B4: Compound 48 (peptide)
peptide: H-[dY]ICI[Trp(1-Me)]QDW[Sar]AHRC[NMeI]-NH2
modifications: disulfide 3-13
SMILES: CC[C@H](C)[C@H](NC(=O)[C@H](N)Cc1ccc(O)cc1)C(=O)N[C@H]1CSSC[C@@H](C(=O)N(C)[C@H](C(N)=O)[C@@H](C)CC)NC(=O)[C@H](CCCNC(=N)N)NC(=O)[C@H](Cc2c[nH]cn2)NC(=O)[C@H](C)NC(=O)CN(C)C(=O)[C@H](Cc2c[nH]c3ccccc23)NC(=O)[C@H](CC(=O)O)NC(=O)[C@H](CCC(N)=O)NC(=O)[C@H](Cc2cn(C)c3ccccc23)NC(=O)[C@H]([C@@H](C)CC)NC1=O
B5: Compound G (peptide)
peptide: Ac-ICVWQDWGEHRCS-NH2
modifications: disulfide 2-12
SMILES: CC[C@H](C)[C@H](NC(C)=O)C(=O)N[C@H]1CSSC[C@@H](C(=O)N[C@@H](CO)C(N)=O)NC(=O)[C@H](CCCNC(=N)N)NC(=O)[C@H](Cc2c[nH]cn2)NC(=O)[C@H](CCC(=O)O)NC(=O)CNC(=O)[C@H](Cc2c[nH]c3ccccc23)NC(=O)[C@H](CC(=O)O)NC(=O)[C@H](CCC(N)=O)NC(=O)[C@H](Cc2c[nH]c3ccccc23)NC(=O)[C@H](C(C)C)NC1=O
B6: Compound A (peptide)
peptide: Ac-ICVWQDWGEHRCT-NH2
modifications: disulfide 2-12
SMILES: CC[C@H](C)[C@H](NC(C)=O)C(=O)N[C@H]1CSSC[C@@H](C(=O)N[C@H](C(N)=O)[C@@H](C)O)NC(=O)[C@H](CCCNC(=N)N)NC(=O)[C@H](Cc2c[nH]cn2)NC(=O)[C@H](CCC(=O)O)NC(=O)CNC(=O)[C@H](Cc2c[nH]c3ccccc23)NC(=O)[C@H](CC(=O)O)NC(=O)[C@H](CCC(N)=O)NC(=O)[C@H](Cc2c[nH]c3ccccc23)NC(=O)[C@H](C(C)C)NC1=O
B7: Compound D (peptide)
peptide: Ac-ICVWQDWGEHRCTGAES-NH2
modifications: disulfide 2-12
SMILES: CC[C@H](C)[C@H](NC(C)=O)C(=O)N[C@H]1CSSC[C@@H](C(=O)N[C@H](C(=O)NCC(=O)N[C@@H](C)C(=O)N[C@@H](CCC(=O)O)C(=O)N[C@@H](CO)C(N)=O)[C@@H](C)O)NC(=O)[C@H](CCCNC(=N)N)NC(=O)[C@H](Cc2c[nH]cn2)NC(=O)[C@H](CCC(=O)O)NC(=O)CNC(=O)[C@H](Cc2c[nH]c3ccccc23)NC(=O)[C@H](CC(=O)O)NC(=O)[C@H](CCC(N)=O)NC(=O)[C@H](Cc2c[nH]c3ccccc23)NC(=O)[C@H](C(C)C)NC1=O
B8: Ac-IC(1)XWQDWGEHRC(1)T-NH2 with Norvaline at position 3 (peptide)
peptide: Ac-IC[Nva]WQDWGEHRCT-NH2
modifications: disulfide 2-12
SMILES: CCC[C@@H]1NC(=O)[C@@H](NC(=O)[C@@H](NC(C)=O)[C@@H](C)CC)CSSC[C@@H](C(=O)N[C@H](C(N)=O)[C@@H](C)O)NC(=O)[C@H](CCCNC(=N)N)NC(=O)[C@H](Cc2c[nH]cn2)NC(=O)[C@H](CCC(=O)O)NC(=O)CNC(=O)[C@H](Cc2c[nH]c3ccccc23)NC(=O)[C@H](CC(=O)O)NC(=O)[C@H](CCC(N)=O)NC(=O)[C@H](Cc2c[nH]c3ccccc23)NC1=O
B9: Ac-IC(1)XWQDWGEHRC(1)T-NH2 with Norleucine at position 3 (peptide)
peptide: Ac-IC[Nle]WQDWGEHRCT-NH2
modifications: disulfide 2-12
SMILES: CCCC[C@@H]1NC(=O)[C@@H](NC(=O)[C@@H](NC(C)=O)[C@@H](C)CC)CSSC[C@@H](C(=O)N[C@H](C(N)=O)[C@@H](C)O)NC(=O)[C@H](CCCNC(=N)N)NC(=O)[C@H](Cc2c[nH]cn2)NC(=O)[C@H](CCC(=O)O)NC(=O)CNC(=O)[C@H](Cc2c[nH]c3ccccc23)NC(=O)[C@H](CC(=O)O)NC(=O)[C@H](CCC(N)=O)NC(=O)[C@H](Cc2c[nH]c3ccccc23)NC1=O

What follows are binders tested against T1, Human C3 (Complement tech cat #A113c) (human, UniProt P01024 23-1663) (assay: cell-based or functional assay).
T1 sequence (P01024 23-1663 limits assumed): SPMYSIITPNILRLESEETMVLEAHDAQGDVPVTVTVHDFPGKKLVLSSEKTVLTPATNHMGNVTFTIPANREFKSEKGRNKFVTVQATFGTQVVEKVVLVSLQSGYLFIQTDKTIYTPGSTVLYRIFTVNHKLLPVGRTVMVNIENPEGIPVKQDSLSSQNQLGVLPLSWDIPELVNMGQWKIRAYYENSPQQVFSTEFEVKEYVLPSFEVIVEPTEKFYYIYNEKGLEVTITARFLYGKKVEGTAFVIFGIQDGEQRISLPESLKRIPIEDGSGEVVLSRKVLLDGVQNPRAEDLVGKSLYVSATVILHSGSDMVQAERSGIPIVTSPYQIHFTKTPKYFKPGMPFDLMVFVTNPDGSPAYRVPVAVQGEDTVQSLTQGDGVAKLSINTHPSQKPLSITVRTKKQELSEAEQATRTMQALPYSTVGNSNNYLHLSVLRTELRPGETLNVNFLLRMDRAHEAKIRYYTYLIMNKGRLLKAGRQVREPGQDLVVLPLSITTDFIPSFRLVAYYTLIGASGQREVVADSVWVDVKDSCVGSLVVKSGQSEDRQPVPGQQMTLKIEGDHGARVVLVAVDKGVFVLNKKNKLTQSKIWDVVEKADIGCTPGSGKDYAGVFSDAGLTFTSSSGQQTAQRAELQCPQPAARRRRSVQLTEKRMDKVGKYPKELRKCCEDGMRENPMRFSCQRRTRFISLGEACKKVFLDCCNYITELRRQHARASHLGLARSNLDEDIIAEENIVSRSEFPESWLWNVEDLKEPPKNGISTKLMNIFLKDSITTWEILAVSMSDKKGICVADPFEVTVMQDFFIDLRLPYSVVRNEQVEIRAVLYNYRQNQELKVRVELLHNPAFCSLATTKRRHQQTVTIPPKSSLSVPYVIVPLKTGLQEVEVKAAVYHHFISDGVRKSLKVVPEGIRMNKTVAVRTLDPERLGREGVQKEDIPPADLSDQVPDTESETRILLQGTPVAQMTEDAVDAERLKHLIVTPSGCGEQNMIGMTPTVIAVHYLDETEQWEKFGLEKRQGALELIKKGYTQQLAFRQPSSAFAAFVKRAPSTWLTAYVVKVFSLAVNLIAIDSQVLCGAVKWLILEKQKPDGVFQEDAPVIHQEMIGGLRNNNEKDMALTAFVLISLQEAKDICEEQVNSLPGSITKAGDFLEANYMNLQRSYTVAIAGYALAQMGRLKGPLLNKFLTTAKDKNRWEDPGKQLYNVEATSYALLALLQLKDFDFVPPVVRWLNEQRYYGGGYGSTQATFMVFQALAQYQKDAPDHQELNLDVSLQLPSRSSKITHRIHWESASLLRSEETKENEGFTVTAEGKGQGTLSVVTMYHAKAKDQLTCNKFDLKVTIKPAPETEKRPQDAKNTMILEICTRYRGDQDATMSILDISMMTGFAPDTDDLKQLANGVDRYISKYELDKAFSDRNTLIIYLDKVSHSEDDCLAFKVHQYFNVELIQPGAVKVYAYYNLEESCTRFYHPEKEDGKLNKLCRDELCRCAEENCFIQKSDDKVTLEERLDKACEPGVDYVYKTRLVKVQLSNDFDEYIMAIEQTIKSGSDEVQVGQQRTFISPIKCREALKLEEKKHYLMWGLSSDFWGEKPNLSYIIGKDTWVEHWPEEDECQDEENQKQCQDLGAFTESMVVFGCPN

Binder | inhibition of hemolysis IC50
B1 | < 100 nM
B2 | < 100 nM
B3 | < 100 nM
B4 | < 100 nM

Biological target: T1, Human C3 (Complement tech cat #A113c)
Assay: cell-based or functional assay
Remark: another data set of the same source

Binder | CP hemolysis IC50
B1 | 94 nM
B5 | 180 nM
B6 | 350 nM
B2 | 77 nM
B3 | 47 nM
B7 | 210 nM

Biological target: T1, Human C3 (Complement tech cat #A113c)
Assay: cell-based or functional assay
Remark: another data set of the same source

Binder | IC50, CP hemolysis
B1 | < 100 nM
B6 | 350 nM
B8 | > 1000 nM
Ac-IC[β3hI]WQDWGEHRCT-NH2 (disulfide 2-12) [Ac-IC(1)XWQDWGEHRC(1)T-NH2 with Beta-Homo-Isoleucine at position 3] | > 10000 nM
B9 | 480 nM

What follows are binders tested against T1, Human C3 (Complement tech cat #A113c) (assay: SPR (Biacore T200), human C3 immobilised, peptide injected, 1:1 fit).
How it was run: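 Human C3 amine-coupled on CM5 chips to about 3000 RU. Multi-cycle runs on Biacore T200 at 25° C: peptides at 6-8 rising concentrations, 60-120 s at 30 µL/min in 10 mM Tris pH 7.4, 150 mM NaCl, 0.05% Tween20, dissociation up to 10 min; 3 M MgCl2 regeneration. Kd derived.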

Binder | Kd
B1 | 16 nM
B2 | 16 nM
B3 | 14 nM
B4 | 0.12 nM

Biological target: T1, Human C3 (Complement tech cat #A113c)
Assay: as above
Remark: another data set of the same source
Method: Surface plasmon resonance (SPR) was used to characterize peptides with respect to their binding affinity (Kd) for C3. Human C3 (Complement tech cat #A113c) was immobilised on individual flow cells of CM5 sensor chips (GE Healthcare) using standard amine coupling to a density of approximately 3000 resonance units (RU) in a buffer consisting of 10 mM phosphate pH 7.4, 150 mM NaCl, 0.05% Tween20.
For interaction experiments a multi-cycle experiment approach was used and performed using a BiacoreT200™ instrument (GE Healthcare) at 25° C. Peptides were injected in increasing concentration series (6-8 different concentrations) for 60-120 sat a flow rate of 30 µL/min in a buffer consisting of 10 mM Tris buffer at pH 7.4, with 150 mM NaCl and 0.05% Tween20. This was followed by a dissociation period for up to 10 min. The C3 surface was regenerated between runs by a 45 s injection of 3 M MgCl_2.

Binder | Kd
B1 | 16 nM
B5 | 160 nM
B6 | 130 nM
B2 | 16 nM
B3 | 14 nM
B7 | 230 nM
B4 | 0.12 nM
